Data on 3 molecules can be found in patent US20230322910A1 (published 2023).

One test has as its target 4B7. Put plainly: SPR; U-value 95, negligible response. A general note: SPR reads the build-up and loss of mass on a sensor chip optically.
Test [1] concerns the target T1, PfRipr5 (fragment of Ripr, positions 720-934 of SEQ ID NO: 17), made by wheat germ cell-free synthesis with … (UniProt O97302 720-934).
T1 chain: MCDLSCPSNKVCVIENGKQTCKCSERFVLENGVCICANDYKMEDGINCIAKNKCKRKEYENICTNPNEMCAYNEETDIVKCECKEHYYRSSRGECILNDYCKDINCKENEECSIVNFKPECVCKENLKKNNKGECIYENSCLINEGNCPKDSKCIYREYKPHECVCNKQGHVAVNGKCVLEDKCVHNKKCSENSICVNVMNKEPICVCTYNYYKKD
As to the kind of experiment: SPR.

B1: - (other)
chain: MCDLSCPSNKVCVIENGKQTCKCSERFVLENGVCICANDYKMEDGINCIAKNKCKRKEYENICTNPNEMCAYNEETDIVKCECKEHYYRSSRGECILNDYCKDINCKENEECSIVNFKPECVCKENLKKNNKGECIYENSCLINEGNCPKDSKCIYREYKPHECVCNKQGHVAVNGKCVLEDKCVHNKKCSENSICVNVMNKEPICVCTYNYYKKD
One may read the Kd as the concentration at which binding is half-saturated. Read a low Kd as a tighter complex. In turn, B1 gave a Kd with 4B7 of 69.3 pM. In other words, the picomolar range.

B2: mouse monoclonal antibody 29B11 (antibody, V domains shown)
VH: EVQLQQSGPELMKPGASVKISCKTSGYTFTEYTMHWVKQSHGKSLEWIGGIDPNNGITIYDQKFKGKATLTVDKSSSTAYMELRSLTSEDSAVYYCTRYYYGHYFDYWGQGTTLTVSS
VL: DVLMTQTPLSLPVSLGDQASISCRSSQSIVHNNGHTYLEWYLQKPGQSPKLLIYKVSNRFSGVPDRFSGSGSGTDFTLKISRVEAEDLGIYYCFQDSHVPWTFGGGTKLEIKR
Turning to B2, the Kd in test [1] was 2190 pM. In other words, the single-digit nanomolar range.

B3: mouse monoclonal antibody 26H4 (antibody, V domains shown)
VH: EVQLQQSGPELVKPGASVKISCKTSGYTFTEYTMHWVKQSHGKSLEWIGGIDPNNGVTIYNQNFKGKATLTVDKSSSTAYMELRSLTSEDSAVYHCARYYYGHYFDYWGQGTTLTVSS
VL: DVLMTQTPLSLPVSLGDQASISCRSSQSIVHSNGNTYLEWYLQKPGQSPKLLIYKVSNRFSGVPDRFSGSGSGTDFTLKISRVEAEDLGVYYCFQNSHVTWTFGGGTKLEIKR
B3: the Kd in test [1] came out at 690 pM.
